B1: CD147: N152Q (protein)
parent chain: MAAALFVLLGFALLGTHGASGAAGTVFTTVEDLGSKILLTCSLNDSATEVTGHRWLKGGVVLKEDALPGQKTEFKVDSDDQWGEYSCVFLPEPMGTANIQLHGPPRVKAVKSSEHINEGETAMLVCKSESVPPVTDWAWYKITDSEDKALMNGSESRFFVSSSQGRSELHIENLNMEADPGQYRCNGTSSKGSDQAIITLRVRSHLAALWPFLGIVAEVLVLVTIIFIYEKRRKPEDVLDDDDAGSAPLKSSGQHQNDKGKNVRQRNSS
B2: CD147: N44/152Q (protein)
parent chain: B1 parent chain
B3: CD147: N44Q (protein)
parent chain: B1 parent chain
B4: CD147: castanospermine (CAS) 24 h (protein)
parent chain: B1 parent chain
B5: CD147: N186Q (protein)
parent chain: B1 parent chain
B6: CD147: N44/152/186Q (protein)
parent chain: B1 parent chain
B7: CD147: castanospermine (CAS) 12 h on N44/186Q (protein)
parent chain: B1 parent chain
B8: CD147: N152/186Q (protein)
parent chain: B1 parent chain
B9: CD147: castanospermine (CAS) 12 h (protein)
parent chain: B1 parent chain
B10: CD147: N44/186Q (protein)
parent chain: B1 parent chain

What was measured:
[1] = protein accumulation on Gp78 siRNA, immunoblot; conditions: glycan lost; control: CD147(WT)-EGFP
[2] = immunofluorescence colocalisation with chaperones; conditions: glycan lost; control: CD147(WT)-EGFP
[3] = anti-EGFP immunoblot of total lysates; mRNA unchanged; conditions: glycan lost; control: CD147(WT)-EGFP
[4] = confocal immunofluorescence with ER-Tracker, stable cells; conditions: glycan lost; control: CD147(WT)-EGFP
[5] = confocal immunofluorescence with ER-Tracker, transient double mutants; conditions: glycan lost; control: CD147(WT)-EGFP
[6] = immunofluorescence, aggregation with GRP78, 24 h castanospermine; conditions: glycan changed form; control: CD147(WT)-EGFP cells without CAS
[7] = immunofluorescence with CNX, 12 h castanospermine; conditions: glycan changed form

| Protein | localisation_or_trafficking [4] | localisation_or_trafficking [5] | further results |
| --- | --- | --- | --- |
| B1 | changes |  | degradation_or_half_life [1]: decreases; localisation_or_trafficking [2]: increases; expression_or_secretion [3]: decreases |
| B2 |  | changes |  |
| B3 | changes |  |  |
| B4 |  |  | stability_or_folding [6]: decreases |
| B5 | changes |  |  |
| B6 | changes |  | expression_or_secretion [3]: decreases |
| B7 |  |  | localisation_or_trafficking ([7]; control: CD147(N44/186Q)-EGFP cells without CAS): changes |
| B8 |  | changes |  |
| B9 |  |  | localisation_or_trafficking ([7]; control: CD147(WT)-EGFP cells without CAS): changes |
| B10 |  | no change |  |

Source: article PMC5116672
